The text below walks through data of patent US20250171532A1 (NB HEALTH LABORATORY, published 2025).

Read-outs that look alike come from different tables or passages of the source.

Experiment [1] concerns the target T1, mouse LPA1 (mouse, UniProt P61793 1-364). Description: cell-based or functional assay.
For experiment [2], the target named is T2, human LPA1 (human, UniProt Q92633 1-364). Briefly: cell-based or functional assay.
Experiment [3] deals with T1, mouse LPA1. Description: cell-based or functional assay. This is another data set of the same source.
The target of experiment [4] is T2, human LPA1. Description: cell-based or functional assay. This is another data set of the same source.
Experiment [5] deals with T1, mouse LPA1. Briefly: flow cytometry, mouse LPA1-stably expressing CHO cells, median fluorescence intensity. The source says:
(§1) The human LPA1-stably expressing CHO cell and the mouse LPA1-stably expressing CHO cell were washed with PBS, then detached from the cell culture dishes by an enzyme-free cell dissociation buffer (Thermo Fisher Scientific, Inc.), then washed with PBS, and then collected by centrifugation. The human LPA1-stably expressing CHO cell and the mouse LPA1-stably expressing CHO cell were suspended at 1×10⁷ cells/mL in Fc Block (Sci-Tech Biosciences, Inc.) diluted by 500 times in FACS buffer, and then allowed to stand at 4° C. for 30 minutes to block the cells. The cells were collected by centrifugation and suspended in FACS buffer at 4×10⁶ cells/mL, and this suspension was dispensed into a V-bottom 96-well plate (Thermo Fisher Scientific, Inc.) at 25 μL (1×10⁵ cells)/well. As primary antibodies, the eleven types of LPA1 antibodies produced and purified by the method described above and a mouse isotype control antibody (Fujifilm Wako Pure Chemicals Corporation) were diluted stepwise, which was added to each well at 25 μL/well, and allowed to stand at 4° C. for 1 hour. The cells were collected by centrifugation and washed with 120 μL of FACS buffer. This washing operation was repeated twice. To the cell sediment, 25 μL each of Goat Anti-Mouse IgG H&L (DyLight 650) (Abcam) that was a secondary antibody diluted by 500 times in FACS buffer was dispensed, then suspended, and then allowed to stand at 4° C. for 1 hour. The cells were washed twice, then suspended in 50 μL of FACS buffer, and the binding of antibodies to the cells was measured using a flow cytometer (Agilent Novocyte).
(§2) A graph was created, in which a concentration of the antibody was plotted on the […] axis, and a median fluorescence intensity of the flow cytometer histogram was plotted on the horizontal axis. All of the eleven antibodies were confirmed to dose-dependently bind to the human LPA1-stably expressing CHO cell and the mouse LPA1-stably expressing CHO cell. The results of the binding of each antibody to the human LPA1-stably expressing CHO cell are presented in FIG. 2A to FIG. 2K, and the results of the binding of each antibody to the mouse LPA1-stably expressing CHO cell are presented in FIG. 3A to FIG. 3K.
On the technique in general: A flow cytometer gives signals particle by particle.

The target of experiment [6] is T2, human LPA1. Briefly: flow cytometry, human LPA1-stably expressing CHO cells, median fluorescence intensity.
Text: as §1
Subsequently, the binding activity of the human LPA1-stably expressing CHO cell to human LPA1 was measured according to the method in Example 6. A graph was created, in which a concentration of the antibody was plotted on the […] axis, and a median fluorescence intensity of the flow cytometer histogram was plotted on the horizontal axis. […] The intracellular cAMP signaling inhibitory activity was also measured according to the method in Example 7.

The target of experiment [7] is T2, human LPA1. The experiment is described as above.
Text: as §1, §2
This is another data set of the same source.

In experiment [8] the target is T2, human LPA1. Briefly: cell-based or functional assay. The source holds these as a separate data set.
Experiment [9] deals with T3, human LPA3 with FLAG tag (human LPA3 gene transfected cell) (human, UniProt Q9UBY5 1-353).
T3 construct: also called EDG7; not shown: FLAG tag added at the 5' terminal of the gene
T3 sequence: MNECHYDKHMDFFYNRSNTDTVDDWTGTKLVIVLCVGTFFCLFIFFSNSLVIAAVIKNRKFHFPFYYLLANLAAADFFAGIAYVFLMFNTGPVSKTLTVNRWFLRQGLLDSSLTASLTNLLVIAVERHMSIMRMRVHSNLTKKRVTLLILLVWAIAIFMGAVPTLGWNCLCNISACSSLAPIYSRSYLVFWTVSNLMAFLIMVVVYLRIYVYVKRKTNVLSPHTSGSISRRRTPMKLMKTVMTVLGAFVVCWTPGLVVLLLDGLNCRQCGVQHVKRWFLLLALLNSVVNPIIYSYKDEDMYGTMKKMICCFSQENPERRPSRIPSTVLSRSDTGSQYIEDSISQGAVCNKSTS
Briefly: flow cytometry, transfected HEK293FT cells, histogram shift. As to the method:
(§3) BTEK293FT cell was transfected with 10 μg of an expression vector carrying each synthetic gene using Lipofectamine 2000, to prepare a human LPA1 gene transfected cell, a mouse LPA1 gene transfected cell, a human LPA2 gene transfected cell, a mouse LPA2 gene transfected cell, a human LPA3 gene transfected cell, and a mouse LPA3 gene transfected cell.
(§4) The next day, the cells were washed with PBS, then detached from the cell culture dishes by an enzyme-free cell dissociation buffer (Thermo Fisher Scientific, Inc.), then washed with PBS, and then collected by centrifugation. Goat serum (Thermo Fisher Scientific, Inc.) was diluted by 2 times in FACS buffer (PBS containing 1% o of FBS), into which the cells were suspended at 1×10⁷ cells/mL. This suspension was allowed to stand at 4° C. for 30 minutes to block the cells. The cells were collected by centrifugation and suspended in FACS buffer at 4×10⁶ cells/mL, and this suspension was dispensed into a V-bottom 96-well plate (Thermo Fisher Scientific, Inc.) at 25 μL (1×10⁵ cells)/well.
(§5) The cells were collected by centrifugation and washed with 120 μL of FACS buffer. This washing operation was repeated twice. To the cell sediment, 25 μL each of Goat Anti-Mouse IgG H&L (DyLight 650) (Abcam) that was a secondary antibody diluted by 500 times in FACS buffer was dispensed, then suspended, and then allowed to stand at 4° C. for 1 hour. The cells were washed twice, then suspended in 50 μL of FACS buffer, and the whole content thereof was transferred to a V-bottom 96-well plate (Greiner), to measure the binding of antibodies to the cells using a flow cytometer (Agilent Novocyte).

For experiment [10], the target named is T4, mouse LPA2 with FLAG tag (mouse LPA2 gene transfected cell) (mouse, UniProt Q9JL06 1-348).
T4 construct: not shown: FLAG tag added at the 5' terminal of the gene
T4 sequence (Q9JL06 whole entry): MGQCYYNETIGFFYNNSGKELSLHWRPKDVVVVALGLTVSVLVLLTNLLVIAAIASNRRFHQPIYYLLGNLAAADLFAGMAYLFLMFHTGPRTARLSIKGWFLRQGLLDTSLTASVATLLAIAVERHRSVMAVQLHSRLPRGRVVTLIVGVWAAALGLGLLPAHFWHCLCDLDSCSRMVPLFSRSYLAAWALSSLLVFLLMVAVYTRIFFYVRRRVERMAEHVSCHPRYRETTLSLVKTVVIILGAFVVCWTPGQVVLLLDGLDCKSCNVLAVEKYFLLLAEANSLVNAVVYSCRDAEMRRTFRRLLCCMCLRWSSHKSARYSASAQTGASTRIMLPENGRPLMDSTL
The description is as above. As for the experimental part: as §3, §4, §5

The target in experiment [11] is T5, human LPA2 with FLAG tag (human LPA2 gene transfected cell) (human, UniProt Q9HBW0 1-348).
T5 construct: also called EDG4; not shown: FLAG tag added at the 5' terminal of the gene
T5 sequence (Q9HBW0 other isoform, or with tags, fused parts or gaps): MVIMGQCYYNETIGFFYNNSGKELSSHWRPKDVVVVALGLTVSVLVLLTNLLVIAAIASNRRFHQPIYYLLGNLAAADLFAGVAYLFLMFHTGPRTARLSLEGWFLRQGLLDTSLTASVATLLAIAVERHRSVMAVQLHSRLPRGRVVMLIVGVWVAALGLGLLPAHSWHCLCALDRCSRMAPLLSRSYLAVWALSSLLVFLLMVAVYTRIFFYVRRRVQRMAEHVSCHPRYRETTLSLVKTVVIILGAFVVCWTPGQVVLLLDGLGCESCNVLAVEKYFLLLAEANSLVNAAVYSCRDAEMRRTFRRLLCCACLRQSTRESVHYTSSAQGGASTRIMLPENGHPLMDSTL
Described as above. As for the experimental part:
as §3, §4, §5

Experiment [12] deals with T6, mouse LPA3 with FLAG tag (mouse LPA3 gene transfected cell) (mouse, UniProt Q9EQ31 1-354).
T6 construct: not shown: FLAG tag added at the 5' terminal of the gene
T6 sequence: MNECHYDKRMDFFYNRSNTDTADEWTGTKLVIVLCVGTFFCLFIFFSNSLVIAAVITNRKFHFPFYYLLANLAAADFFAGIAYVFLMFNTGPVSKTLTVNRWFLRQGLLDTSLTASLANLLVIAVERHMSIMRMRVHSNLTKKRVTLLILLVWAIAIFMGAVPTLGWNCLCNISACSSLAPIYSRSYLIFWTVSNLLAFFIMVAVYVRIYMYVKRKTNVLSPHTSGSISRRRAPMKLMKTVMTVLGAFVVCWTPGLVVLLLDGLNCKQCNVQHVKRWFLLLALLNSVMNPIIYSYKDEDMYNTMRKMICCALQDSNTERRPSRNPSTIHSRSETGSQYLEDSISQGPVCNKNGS
The experiment is described as above. As for the experimental part:
as §3, §4, §5

T2 sequence (Q92633 whole entry): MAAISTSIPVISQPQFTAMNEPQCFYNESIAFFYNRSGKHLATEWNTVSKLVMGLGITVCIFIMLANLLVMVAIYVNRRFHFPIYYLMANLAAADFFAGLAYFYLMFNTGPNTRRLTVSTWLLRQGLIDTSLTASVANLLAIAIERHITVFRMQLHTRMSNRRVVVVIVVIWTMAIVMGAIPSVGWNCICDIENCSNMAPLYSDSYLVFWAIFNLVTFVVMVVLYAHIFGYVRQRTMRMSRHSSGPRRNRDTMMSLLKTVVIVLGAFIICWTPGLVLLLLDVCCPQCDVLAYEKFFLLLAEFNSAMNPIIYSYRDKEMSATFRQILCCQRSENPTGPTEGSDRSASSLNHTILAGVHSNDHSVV
T1 sequence (P61793 whole entry): as the sequence (Q92633 whole entry) above, with I4A, I8S, P22Q, H40Y, I61V, E193D, N194H, I269V, S331N, T335N counted along it

B1: 210309-4-A (antibody, mouse IgG1, V domains shown)
VH: QVQLQQSGAELARPGASVKLSCKASGYTFTSYGISWVKQRTGQGLEWIGEIYPRSGNTYYNEKFKGKATLTADKSSSTAYMELRSLTSEDSAVYFCARESISRRLGWNFDVWGTGTTVTVSS
VL: DIHMTQSPASLSASVGETVTITCRASENIYSFLAWYQQKQGKSPHLVVYNAKTLTEGVPSRFSGSGSGTHFSLKINSLQPEDFGIYYCQHHYGPPLTFGAGTKLELK
notes: Mouse monoclonal from human LPA1 immunization
Broadly, the EC50 is the concentration that produces a half-maximal response. Read a low EC50 as higher potency in that assay. Take B1: the figures for the “Intracellular cAMP signaling inhibition (Inhibition rate %/100 nM)” value in experiment [1] and in experiment [2] were 50% and 95%, respectively. The “Intracellular cAMP signaling inhibition IC50” value in experiment [3] stood at 23.8 nM; in experiment [4], 5.3 nM; in experiment [8], 4.5 nM. In addition, the EC50 in experiment [5] was 1.1 nM; in experiment [6], 1.4 nM; in experiment [7], 1.5 nM. The binding result in experiment [9], in experiment [10], in [11] and in experiment [12] was “no binding (tested: 25 g/mL (so in the source))” throughout.

B2: 309-4-A-Chimera (antibody, human IgG1, kappa, L234A L235A, V domains shown)
VH: QVQLQQSGAELARPGASVKLSCKASGYTFTSYGISWVKQRTGQGLEWIGEIYPRSGNTYYNEKFKGKATLTADKSSSTAYMELRSLTSEDSAVYFCARESISRRLGWNFDVWGTGTTVTVSS
VL: DIHMTQSPASLSASVGETVTITCRASENIYSFLAWYQQKQGKSPHLVVYNAKTLTEGVPSRFSGSGSGTHFSLKINSLQPEDFGIYYCQHHYGPPLTFGAGTKLELKR
notes: also called chimeric anti-LPA1 antibody
B2 came in with an EC50 in experiment [6] of 4.4 nM. In addition, the “Intracellular cAMP signaling inhibition IC50” value in experiment [8] amounted to 1 nM.

B3: h309-4-A-SS1 (antibody, human IgG1, kappa, L234A L235A, V domains shown)
VH: QVQLQESGPGLVKPSETLSLTCTASGYTFTSYGISWVRQTPGKGLEWIGEIYPRSGNTYYNEKFKGRATLSADKSKNQASLKLKSVTAADTAIYFCARESISRRLGWNFDVWGRGTLVTVSG
VL: DIQMTQTPSSLSASVGDRVTITCRASENIYSFLAWYQQKPGEAPKRVVYNAKTLTEGVPSRFSGSGSGTDFTLTISSLQPEDFATYYCQHHYGPPLTFGQGTKLEIKR
notes: also called humanized anti-LPA1 antibody
In experiment [6], B3 gave an EC50 of 4.9 nM. Moreover, the “Intracellular cAMP signaling inhibition IC50” value in experiment [8] is 5.2 nM.

B4: h309-4-A-BP1 (antibody, human IgG1, kappa, L234A L235A, V domains shown)
VH: QVQLVQSGAEVKKPGASVKVSCKASGYTFTSYGISWVRQAPGQGLEWMGEIYPRSGNTYYNEKFKGRVTLTADKSTSTAYMELRSLTSEDTAVYFCARESISRRLGWNFDVWGQGTTVTVSS
VL: DIQMTQSPSSLSASVGDTVTITCRASENIYSFLAWYQQKPGKAPKLLIYNAKTLTEGVPSRFSGSGSGTHFSLTINSLQPEDFGIYYCQHHYGPPLTFGQGTKLEIKR
notes: as for B3
As to B4, the EC50 in experiment [6] was 4.3 nM. Besides, the “Intracellular cAMP signaling inhibition IC50” value in experiment [8] was determined as 4.4 nM.

B5: h309-4-A-SG1 (antibody, human IgG1, kappa, L234A L235A, V domains shown)
VH: QVQLVQSGAEVKKPGASVKVSCKASGYTFTSYGISWVRQAPGQGLEWIGEIYPRSGNTYYNEKFKGRATLTADKSTSTAYMELRSLRSDDTAVYFCARESISRRLGWNFDVWGTGTTVTVSS
VL: DIQMTQSPSSLSASVGDRVTITCRASENIYSFLAWYQQKPGKAPKLVVYNAKTLTEGVPSRFSGSGSGTDFTLTISSLQPEDFATYYCQHHYGPPLTFGAGTKLELKR
notes: as for B3
Turning to B5, in experiment [6], the EC50 stood at 4.2 nM. Also, in experiment [8], the “Intracellular cAMP signaling inhibition IC50” value is 5.7 nM.
